According to paper PMC3120933 (Journal of the American Chemical Society, 2011):

T1: cav(1-104), truncated caveolin-1 with intramembrane and C-terminal domains deleted (human, UniProt Q03135 1-104)
T1 sequence (looked up): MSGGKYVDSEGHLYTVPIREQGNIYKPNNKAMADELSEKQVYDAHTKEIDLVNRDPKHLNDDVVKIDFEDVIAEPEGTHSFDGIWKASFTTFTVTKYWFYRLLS


Target: T1, cav(1-104), truncated caveolin-1 with …
Test: ITC

| Binder | dH1 (first binding site) | dH2 (second binding site) |
| --- | --- | --- |
| YTSLIHSLIEESQNQQEKHEKEIIDIERWASMLQLF (designed binder) [caveolin ligand 5 fused to MBP] | -26.1 kcal/mol | 83.9 kcal/mol |
| YTSLIHSLIEESQNQQEKQEKELMELERWGSMLKCF (designed binder) [caveolin ligand 4 fused to MBP] | -20.6 kcal/mol | 44.8 kcal/mol |
